# Source: IntAct's records for PubMed 23263282
# B1: Telomere length regulation protein TEL2 homolog (Homo sapiens), Q9Y4R8 (parent)
# chain: MEPAPSEVRLAVREAIHALSSSEDGGHIFCTLESLKRYLGEMEPPALPREKEEFASAHFSPVLRCLASRLSPAWLELLPHGRLEELWASFFLEGPADQAFLVLMETIEGAAGPSFRLMKMARLLARFLREGRLAVLMEAQCRQQTQPGFILLRETLLGKVVALPDHLGNRLQQENLAEFFPQNYFRLLGEEVVRVLQAVVDSLQGGLDSSVSFVSQVLGKACVHGRQQEILGVLVPRLAALTQGSYLHQRVCWRLVEQVPDRAMEAVLTGLVEAALGPEVLSRLLGNLVVKNKKAQFVMTQKLLFLQSRLTTPMLQSLLGHLAMDSQRRPLLLQVLKELLETWGSSSAIRHTPLPQQRHVSKAVLICLAQLGEPELRDSRDELLASMMAGVKCRLDSSLPPVRRLGMIVAEVVSARIHPEGPPLKFQYEEDELSLELLALASPQPAGDGASEAGTSLVPATAEPPAETPAEIVDGGVPQAQLAGSDSDLDSDDEFVPYDMSGDRELKSSKAPAYVRDCVEALTTSEDIERWEAALRALEGLVYRSPTATREVSVELAKVLLHLEEKTCVVGFAGLRQRALVAVTVTDPAPVADYLTSQFYALNYSLRQRMDILDVLTLAAQELSRPGCLGRTPQPGSPSPNTPCLPEAAVSQPGSAVASDWRVVVEERIRSKTQRLSKGGPRQGPAGSPSRFNSVAGHFFFPLLQRFDRPLVTFDLLGEDQLVLGRLAHTLGALMCLAVNTTVAVAMGKALLEFVWALRFHIDAYVRQGLLSAVSSVLLSLPAARLLEDLMDELLEARSWLADVAEKDPDEDCRTLALRALLLLQRLKNRLLPPASP
# partner: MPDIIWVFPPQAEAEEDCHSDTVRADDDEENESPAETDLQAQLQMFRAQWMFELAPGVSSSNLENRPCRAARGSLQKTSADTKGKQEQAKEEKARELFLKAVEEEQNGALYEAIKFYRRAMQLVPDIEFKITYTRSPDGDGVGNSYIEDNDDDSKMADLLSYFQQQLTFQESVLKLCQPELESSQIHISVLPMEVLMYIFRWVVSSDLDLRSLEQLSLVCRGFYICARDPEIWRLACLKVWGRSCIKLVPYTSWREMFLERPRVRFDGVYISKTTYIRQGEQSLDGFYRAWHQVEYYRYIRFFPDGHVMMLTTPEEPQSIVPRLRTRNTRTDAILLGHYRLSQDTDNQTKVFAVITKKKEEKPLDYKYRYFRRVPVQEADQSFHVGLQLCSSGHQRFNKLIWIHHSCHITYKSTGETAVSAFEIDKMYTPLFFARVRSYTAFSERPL
# B2: TELO2-interacting protein 1 homolog (Homo sapiens), O43156 (parent)
# chain: MAVFDTPEEAFGVLRPVCVQLTKTQTVENVEHLQTRLQAVSDSALQELQQYILFPLRFTLKTPGPKRERLIQSVVECLTFVLSSTCVKEQELLQELFSELSACLYSPSSQKPAAVSEELKLAVIQGLSTLMHSAYGDIILTFYEPSILPRLGFAVSLLLGLAEQEKSKQIKIAALKCLQVLLLQCDCQDHPRSLDELEQKQLGDLFASFLPGISTALTRLITGDFKQGHSIVVSSLKIFYKTVSFIMADEQLKRISKVQAKPAVEHRVAELMVYREADWVKKTGDKLTILIKKIIECVSVHPHWKVRLELVELVEDLLLKCSQSLVECAGPLLKALVGLVNDESPEIQAQCNKVLRHFADQKVVVGNKALADILSESLHSLATSLPRLMNSQDDQGKFSTLSLLLGYLKLLGPKINFVLNSVAHLQRLSKALIQVLELDVADIKIVEERRWNSDDLNASPKTSATQPWNRIQRRYFRFFTDERIFMLLRQVCQLLGYYGNLYLLVDHFMELYHQSVVYRKQAAMILNELVTGAAGLEVEDLHEKHIKTNPEELREIVTSILEEYTSQENWYLVTCLETEEMGEELMMEHPGLQAITSGEHTCQVTSFLAFSKPSPTICSMNSNIWQICIQLEGIGQFAYALGKDFCLLLMSALYPVLEKAGDQTLLISQVATSTMMDVCRACGYDSLQHLINQNSDYLVNGISLNLRHLALHPHTPKVLEVMLRNSDANLLPLVADVVQDVLATLDQFYDKRAASFVSVLHALMAALAQWFPDTGNLGHLQEQSLGEEGSHLNQRPAALEKSTTTAEDIEQFLLNYLKEKDVADGNVSDFDNEEEEQSVPPKVDENDTRPDVEPPLPLQIQIAMDVMERCIHLLSDKNLQIRLKVLDVLDLCVVVLQSHKNQLLPLAHQAWPSLVHRLTRDAPLAVLRAFKVLRTLGSKCGDFLRSRFCKDVLPKLAGSLVTQAPISARAGPVYSHTLAFKLQLAVLQGLGPLCERLDLGEGDLNKVADACLIYLSVKQPVKLQEAARSVFLHLMKVDPDSTWFLLNELYCPVQFTPPHPSLHPVQLHGASGQQNPYTTNVLQLLKELQ
# partner: B1 partner
# Variants of: B1
# Details: with fbx9_human FBXO9, Q9UK97
row,effect of a mutation on the interaction,Variant
1,decreasing interaction strength,S485A;S487A

# Variants of: B2
# Details: with fbx9_human FBXO9, Q9UK97
row,effect of a mutation on the interaction,Variant
1,disrupting interaction strength,S828A
